A short description of this series: soluble on expression in E. coli; label from the status in PepcDB or PDB records.
Take “MSSARLVIAGLNGGTGKTILSLGTVRALTNAGHSVKPFKKGPDYIDAEWLGLAAGRAATNLDPFFLDAARLQSLFLHASAGASISIIEGNRGLYDGRDVTGSCSTAELARILDSPVVLAMDCTKMTRTAAAILSGVAAFEPGVKLAGVVLNRTANERHRSMLRQCIEHYTDIPVLGALPRLRDNPIPERHMGLVSDREFAQCAGELDRVAQFVAQHVDVERMAEIARSAQPLASNEPFWPVVAEGDGVRPRIGYVRDAALWFYYEENLEALRQAGADLVELRIIDGDPWPTLDGLYLGGGFPETLASELSACRERLAGIREAALAGLPVYAECGGFMVLGESIVMDGVEYPMSGVFPVQTVFHPKPQGLGYVEAEVVAENPFFPQGMVFRGHEFHYSACRPRDGGAVTHALRLNPGTGMGGGADGLVQANTFAAYTHIFGPAVQGWAERFVRAARGHRDQLNKGTDLSLEHHHHHH”: the “soluble on expression in E. coli” value was “not soluble”. To “MSSDVRFTDFKSDKQPTWCPGCGDFGTMNGMMKALAETGNDPDNTFIVAGIGCSGKIGTYMHSYALHGVHGRALPVGIGVKMANPDLEVMVSGGDGDGYSIGAGHFIHAVRRNVDMSYVVMDNRIYGLTKGQASPTSREDFETSTSPDGPNQPPVNPKALALASGATFIAQSFSSNAQRHAEIVQKAVEHDGFGFVNVYSPCVTFNDVDTYDYFRDAIVDLDETDHDPADRDQAKDKILESEKEYMGVLYQDEDSVPFEEREGVEGSMAEIPDGAPEGAMDLVREFY” belongs “not soluble”; to “MSSEKRVGMVEKSNNKRQRVNQVPVFSINDHHDVLVEILRRLDGSSLCSAACVCRLWSAVARNDSIWEELCFRQVSPRPSLSLRSVVSALGGYRCLYFLCIRPVLARLPKLLWTRDQLQLSLSLYCVHYYERLYVGAWLGDAPPSSLIFLRKPVNVV”, “soluble”. The value for “MSSETFYKTQQDLRKAESHASHAAGGNTPANSNVSAMKVTPNLLIQFGDTAANSTNQSIVDEHTDKAKAIEERKANLPLPDQPPVASDWQSADQRAVNVGSGGVQGSVSGESNTALRDPATAGSSARMSGEELHKETQPTGNVGRQATEGLSDIPGDAKARK” was “not soluble”; that for “MSSFIEMIENITPDVYESLKLAVEIGKWSDGRKLTQEQRELSLQALIAWEAQNLPEDQRTGYMGPQECASKSAPVPNILFKSDAIH” was “not soluble”. The value for “MSSGNIHIHSMTGFANAAAECGSKRINLDLRAVNHRFLDIQIRMPDDLRYLESGIREKISSHIARGKVECKIQIQDAENGSQSLELNRDLVGQLAEINKDLRKHHDLAKLGVADILRFPGVLASQRENTEELAKSITELTEKALKDFTAARKREGKKLGEHLLQRLEAMEEIIDALSELFPTLLETHKEKIRARLVEAVGSIDNDRLQQEFALFIQKSDIDEEFSRLRTHIAEVRRIVTEHKGSSGKRLDFLMQELNREANTLGSKSIAAECTQASVELKVLIEQMREQVQNIE” was “not soluble”. For “MSSHESLFDYEATLQACARGEKQALQRLYLQESARLLGVAQRLVRDSALAEDIVHDAFLKIWTHAASFDASRGSARGWIFSVTRHLALNTLRNTAREVRVEDDGSDDHHEQATLEGWQETGDAFDWRVNPGRMISCMEQLEPVRRNCIFHAYVDGYSHQEIAQKIGAPLGTVKAWIKRSLTALRECMG”, the “soluble on expression in E. coli” value is recorded as “not soluble”. The value for “MSSIGKEDIYESDGAASQVQKSEPENDNPTHPDIELISVDVDEALKKYKNRVLNLTSSDFSDSIAKKRRHAFGNNQYVLEVTGAGFSGTETAAEKLNRILYEVADLNEQIRADENLKTDLLNAEVLENLEKEVKTLQVAQSNGKTARVEHDVELPNVRTDSKVATLENRLRRIEQVIGSSVIPSAPVLDTIEDLKLRCETLNHSYVSGLEQRLNMMLTKLEKIDETRANNDIDENLDKKVDEILELMQKWDVACSSLPSNVNKVKALNRLHEQVQHFAGGLSHLKTIREKLEKEVAQGREAIIEYESQGKQEIGSVVEKLKLLEAKVADLK” was “not soluble”; that for “MSSIKTSPTKKTSESTTKQDTPNDQTNIENFDEEPSMLSDPEDYLEENETLDMNLSKGDQKVWLVKLPKYLMDDWSNPDSMNGQQLGNVKIKKDARGKLQVKLLLDNKNDRIPKEYDIKMLNTQVRNSYVFTEENLKKFKQEVTEVSDMPEQPQLKELNPEKKKFQVRRKFKYFRVQKEGENGQPVKKYIPFVKTIPKKTSLMGKVCHDCTVVPARTGSKHGESLMKHQNMTQGKERPKVTLLNEIPGVIQSNAGPSIKGNAASIFLKSTQGKNKSEGRTIRMPKKDLLDLLFRLFEEYEYWSMKGLKERTRQPESYLKESLESIATLIKRGPYTSKYTLKAEYRRLRDAERAVRLGLDEDDQNKENNEDEDEDEEMEDVV” was “soluble”. Turning to “MSSITKSRSTKKLSQVIVEQLIETIQSGEFKIGEKIPTELELIEQFDVSRSVIREAITELRSLGFVETRHGIGTFVKEQNIEQNFLLSNASLETINDIVALLELRISLESEAVFLASERRKNKHLEKMKIALNDFEAHISSGENDGTVKADYDFHIAIAEASGNQYFVDFLKYLGEKIIPRARVKSIEQSPENREEYLKTVHHDHVNIYNAILDQDGLLARQMMRAHLSKSIKKFKQ”, the “soluble on expression in E. coli” value was “not soluble”. To “MSSKYNSLKLVKVKNVGDFVYKVSLNRPSKFNALNMVIWKEIGDCFQLIDEDPECRVVILQGEGKHFCSGLDLSEVTFLNGEEADDSARRGRSILRTIKFMQKQFTYIDECSKPVILAMHGYCLGAALDIATACDVRVATKDAVLSVKEVDIGMAADVGTLNRLPKIVGNHSWIKDISLSARHFSAGEALQFGLLSRVYDTREEMINEVLKMAKLIALKSPVGVQGTKNALNYARDHTVENSLNYVATWNMSQLFTDDIMKASMASLSKQPTPPFSKL” belongs “not soluble”; to “MSSLTLTDKVSKMIHQDILSGKLKPGQKLVVAELKERYNVGASPIREALVQLSWNKYVKLEPQKGCWVASISLSELKELFESLRTIGQVLLAKAITNGNENWELNVLTSFHKLNKINLQDAKIEELREWENRYTDFHNSLLEGAQSPIMYQFYQDISHQITRYRHLNNNPQVISETYAQYLEEHEIMMKLTLSRDSEQAIKYLNNHYSKASDLISTYFSA”, “not soluble”; to “MSSPARQYRGRSSEQRAAERRARLLEAGLQVFGTVGGEKATMTAICAEAKLTERYFYESFRDRDDLLVQVIEGIAAEIAEAARVTLQTVTGDPEVRARAAIATFVDILTADPRKGRVSIIESAAAEPLRTRRRELLRAFALLVAEESKELYGDRAWSSPQDEITALLFVGGLAELMTAWLNGEIEVSPEQIVDAATYQFTSTAHR”, “not soluble”. To “MSSPYSPREWLQLNMQQQGLLQPQTSVGQLIACLGYVQIDSINVVERAHHHVLHSRMPQYQPQMLDTALAQGEIFEYWSHAAAYLPIADYRFSLQRKQQLQNGGKHWFEPDDNAMQEVRARIRAEGPLKASDFEHTEGKNGAWWDWKPAKKALEQLFMRGELMVVRREKFQKCYDLTERVLPSHINTLAPSDSEFARHLISRYLDAHAFGSAAQIAYLRKGIKANVNQQLAAMQSQGELASFKAEGQWYFYRPELQITAAMPNRVWLLNPFDNLLIQRQRLKQWFDFDYQIEVYVPAEKRQYGYYSLAILWRDRFVGRVDVKADRQSGLLLLQQLTLEEGFDGMDEGFCSAFEATVSEYARFNICSRWKLVKANHKAFKLEHHHHHH” belongs “not soluble”; to “MSSQIPFTVDHVGSFLRPETIKKARKKVQAGALSQAELRLIEDEEIKALVAKQKAGGLRGITDGEFRRGFWHIDFLEGLNGVTGYIPETGYNQTFHGKAAPAYNIRVVDKISFPTQHPFLEDFSFLKEVVEVGDGTVAKATIPSPTMILRQEILSNDGTSRIQTIYPEIGAFYKDLAQTYKDAIAAFYERGCRYLQFDDTNWAFLADQTKQEELRAKGIQPEEIAQVCTTIINEALAGKPEDLTVTTHICRGNHASSWLFSGGYEPIAKELFATNYDGFFLEYDSDRAGDFSPLRHWQNNGSKVVLGLVTSKFPELEETEQVKARIEEAQQFVPLENLSISPQCGFASTEEGNRLTEKEQWRKVQLLQEIAREVWLEHHHHHH”, “soluble”; to “MSSRKGTRSSRIVTLERSANSSLSNNGGGDDSFGSTLLETSRLQEKDHLTSLNSRLATYIDKVRQLEQENNRLQVQIRDIEVVEKKEKSNLADRFEAEKARLRRALDSAQDELAKYRIEYDAAKVEVKKLKPQVEKLERELAGAEEQALHAQSIADQSQAKQKTLQARNDKLVVENDDLKKQNITLRDTVEGLKKAVEDETLLRTAANNKIKALEEDLAFALQQHKGELEEVRHKRQVDMTTYAKQINDEYQSKLQDQIEEMRAQFKNNLHQNKTAFEDAYKNKLNAARERQEEAVSEAIHLRARVRDLETSSSGNASLIERLRSELDTLKRSFQEKLDDKDARIAELNQEIERMMSEFHDLLDVKIQLDAELKTYQALLEGEEERLNLTQEAPQNTSVHHVSFSSGGASAQRGVKRRRVVDVNGEDQDIDYLNRRSKLNKETVGPVGIDEVDEEGKWVRVANNSEEEQSIGGYKLVVKAGNKEASFQFSSRMKLAPHASATVWSADAGAVHHPPEVYVMKKQQWPIGDNPSARLEDSEGDTVSSITVEFSESSDPSDPADRCSIM”, “not soluble”. The value for “MSSRPPFGIVKPSKPTGNPSSGSSELDSTAQPPQERGTDLQRASSGSDVHGHPSPGSQSHNLTSAQSGGRNAHKDLHERHVHPSQGYQRHGSKAPAHGHPSSQGARRSQLKLSNFPKLLANLMQDTKATQDFNSKYHSDFKKSKNSLITGESIFKFSHGIINFFFGRTSASCASNQDTLQPTASTMSDGEPEEDKVKLCGNRLEVGVTDNLAGTQRRKEQQQLQGAQAKKQQAPQRVVNRKANHQKLSRKRRYAPYKDDVIGAHGFFNNMR” was “not soluble”; that for “MSSRYSERNGLSETEKMTLPKVRKRKAQLVDEIEALKNEVREVDEELDQVYYTHPKSKEYHKIVVNGRKKFNQDPWKALDWLASRNVVAKDPQALALWMKAGEGLSKSAIGEILGDNRPFALETLDRFTKEHKLHDVPIVPALRQYLFSFRLPGESQKINRILEKFAEVYANQNPSYGNADQAHTVAYSCIMVNTLLHNPNVKDKPSLEKYIEMNEQLLEKGAITIEQLTEVYESVSVTQFKIPDEVSTSGKGTVNDILLHAEREGWLFKQSSNPLFSGALSWKKRWFVLSENCLYYFDQMTDKEPKGIITLANVGIRKVEAPSRPFMFEIFSLSDGQIKACKTEQDGRLVEGRHSIYKICAVNDEDMRSWINAISRMMAPQQHLLARPKSTH” was “soluble”. On to “MSSSNKESASDLIRAKDAGLLDIWALPSFDPHVEPEPEPEPEPVDEPAEMEEVPLDEVQPLTLEELESIRQEAWNEGFATGEKEGFHSTQLKVRQEAEVVLAAKVASLEQLMGHLLAPIAEQDTQIEKAVIHLVEHIARQVIQRELVTDSGQIASVLRDALKLLPMGAQNLRIFINPQDFLLVKAMRERHEEAWKIVEDEDLLPGGCRIETEHSRIDASVETRIALAISKMHDQLHEQVTHPAAADLSVDLDASPVSTAKTEDSDVDALDAP”, for which the “soluble on expression in E. coli” value was “not soluble”. To “MSSSTSPFLRAISRLIKASFFALSKFSLNCMYKSIQAELLKITYLAFMVKAMIFIPKEKHVYSFGPDMKEVARAKPGEIIVFETLDALGGQIRSEEDTVEKIDFSRVNPATGPVYIEGAEKGKILKVKILEIEVNDRGVIVTAPGAGVLGDLVKAPKTKVCRIANGFVQFGEFKIPVRPMIGVIGVASPEEIPTGTPGRHGGNMDTNLITEGSTVYFPIFKDGAYLALGDLHAVMADGEVCVSACEVSGKVTVKTEVLSGSIEWPIVETSDAYYILVSEEDLEDAVREAVKQGVDILRRANELSWDEAYMLASLIMDVQISQLVDPRKTVRVRIPKQYLKMSLFLEHHHHHH” belongs “not soluble”.

Values taken from the DeepSol protein solubility set.
